In paper PMC4753479, “A CAPS-based binding assay provides semi-quantitative validation of protein-DNA interactions”:

Experiments:
rOsVAL2-B3 [1] = molecular target: T1, rOsVAL2-B3 (rice, UniProt Q6Z3U3 144-517); assay: restriction protection (CBA); conditions: NsiI, same inhibitory effect as 5 ug rOsGD1-B3, 150 ng DNA in 15 ul, CBA: restriction enzyme buffer, 1-7 ug protein, 30 min at 37 C then 1 h digestion at 37 C, pull-down: 1 ug biotinylated DNA, 12 h …
T1 sequence: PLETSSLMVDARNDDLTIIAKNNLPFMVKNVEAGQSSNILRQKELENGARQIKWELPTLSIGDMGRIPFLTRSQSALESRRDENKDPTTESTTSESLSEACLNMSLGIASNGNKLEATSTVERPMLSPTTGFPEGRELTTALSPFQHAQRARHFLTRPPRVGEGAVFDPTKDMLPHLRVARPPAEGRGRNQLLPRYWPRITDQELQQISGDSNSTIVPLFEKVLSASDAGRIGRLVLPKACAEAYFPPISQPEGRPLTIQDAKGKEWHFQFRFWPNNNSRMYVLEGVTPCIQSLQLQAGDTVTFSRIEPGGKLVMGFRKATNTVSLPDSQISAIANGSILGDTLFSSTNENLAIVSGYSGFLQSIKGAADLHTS

rOsGD1-B3 [2] = molecular target: T2, rOsGD1-B3 (rice, UniProt Q0D5G4 342-640); assay: restriction protection (CBA); conditions: 150 ng DNA in 15 ul, CBA: restriction enzyme buffer, 1-7 ug protein, 30 min at 37 C then 1 h digestion at 37 C, pull-down: 1 ug biotinylated DNA, 12 h …
T2 sequence: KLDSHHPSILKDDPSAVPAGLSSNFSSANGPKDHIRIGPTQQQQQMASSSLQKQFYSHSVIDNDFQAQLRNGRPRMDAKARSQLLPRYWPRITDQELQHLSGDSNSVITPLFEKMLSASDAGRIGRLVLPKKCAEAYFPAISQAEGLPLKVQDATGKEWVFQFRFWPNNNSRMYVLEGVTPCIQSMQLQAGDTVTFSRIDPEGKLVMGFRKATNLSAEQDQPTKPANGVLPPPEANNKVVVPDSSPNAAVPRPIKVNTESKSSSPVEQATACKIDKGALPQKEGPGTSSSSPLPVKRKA

rOsGD1-B3 [3] = molecular target: T2, rOsGD1-B3; assay: pull-down; weaker than rOsVAL2-B3; CBA: restriction enzyme buffer, 150 ng DNA, 1-7 ug protein, 15 ul, 30 min at 37 C then 1 h digestion at 37 C; pull-down: 1 ug biotinylated DNA, 12 h, streptavidin-agarose, wash TBS (20 mM Tris, 150 mM NaCl), competitors 5x/10x/20x; conditions: protein: recombinant; tags: 6xHis (pGoldI); label: 5' biotin, both strands; blunt
rOsVAL2-B3 [4] = molecular target: T1, rOsVAL2-B3; assay: pull-down; stronger than rOsGD1-B3; CBA: restriction enzyme buffer, 150 ng DNA, 1-7 ug protein, 15 ul, 30 min at 37 C then 1 h digestion at 37 C; pull-down: 1 ug biotinylated DNA, 12 h, streptavidin-agarose, wash TBS (20 mM Tris, 150 mM NaCl), competitors 5x/10x/20x; conditions: protein: recombinant; tags: 6xHis (pGoldI); label: 5' biotin, both strands; blunt

WT RY-DNA 420 bp
binding signal (rOsVAL2-B3 [1]): 3 µg protein
protein amount for inhibition of NsiI digestion (rOsGD1-B3 [2]): 5 µg protein

B1: WT RY pull-down probe (dsDNA)
DNA 1: TAATTGCATGCATATATGCACGC
DNA 2: GCGTGCATATATGCATGCAATTA
binding result (rOsGD1-B3 [3]): binds
binding result (rOsVAL2-B3 [4]): binds
